Target: myc-tagged LIMP-2

B1: wild-type β-glucocerebrosidase (GC), human, overexpressed in cells (protein)
chain: ARPCIPKSFGYSSVVCVCNATYCDSFDPPTFPALGTFSRYESTRSGRRMELSMGPIQANHTGTGLLLTLQPEQKFQKVKGFGGAMTDAAALNILALSPPAQNLLLKSYFSEEGIGYNIIRVPMASCDFSIRTYTYADTPDDFQLHNFSLPEEDTKLKIPLIHRALQLAQRPVSLLASPWTSPTWLKTNGAVNGKGSLKGQPGDIYHQTWARYFVKFLDAYAEHKLQFWAVTAENEPSAGLLSGYPFQCLGFTPEHQRDFIARDLGPTLANSTHHNVRLLMLDDQRLLLPHWAKVVLTDPEAAKYVHGIAVHWYLDFLAPAKATLGETHRLFPNTMLFASEACVGSKFWEQSVRLGSWDRGMQYSHSIITNLLYHVVGWTDWNLALNPEGGPNWVRNFVDSPIIVDITKDTFYKQPMFYHLGHFSKFIPEGSQRVGLVASQKNDLDAVALMHPDGSAVVVVLNRSSKDVPLTIKDPAVGFLETISPGYSIHTYLWRRQ
  GC enzymatic activity on co-expression with LIMP-2: Upon co-expression of wild-type GC and LIMP-2 we observed a significant increase in GC activity

Source: patent US20170258870
